# Measured values from patent publication US10696719B2, “Nucleoside triphosphate transporter and uses thereof” (THE SCRIPPS RESEARCH INSTITUTE, priority 2016, dated 2020).
# B1: PtNTT2: nucleoside triphosphate transporter from Phaeodactylum tricornutum, full length, SEQ ID NO: 1 (protein, listed as Phaeodactylum tricornutum)
# chain: MRPYPTIALISVFLSAATRISATSSHQASALPVKKGTHVPDSPKLSKLYIMAKTKSVSSSFDPPRGGSTVAPTTPLATGGALRKVRQAVFPIYGNQEVTKFLLIGSIKFFIILALTLTRDTKDTLIVTQCGAEAIAFLKIYGVLPAATAFIALYSKMSNAMGKKMLFYSTCIPFFTFFGLFDVFIYPNAERLHPSLEAVQAILPGGAASGGMAVLAKIATHWTSALFYVMAEIYSSVSVGLLFWQFANDVVNVDQAKRFYPLFAQMSGLAPVLAGQYVVRFASKAVNFEASMHRLTAAVTFAGIMICIFYQLSSSYVERTESAKPAADNEQSIKPKKKKPKMSMVESGKFLASSQYLRLIAMLVLGYGLSINFTEIMWKSLVKKQYPDPLDYQRFMGNFSSAVGLSTCIVIFFGVHVIRLLGWKVGALATPGIMAILALPFFACILLGLDSPARLEIAVIFGTIQSLLSKTSKYALFDPTTQMAYIPLDDESKVKGKAAIDVLGSRIGKSGGSLIQQGLVFVFGNIINAAPVVGVVYYSVLVAWMSAAGRLSGLFQAQTEMDKADKMEAKTNKEK
# B2: PtNTT2(66-575): N-terminally truncated PtNTT2 variant, amino acids 1-65 removed, SEQ ID NO: 4 (protein, listed as Phaeodactylum tricornutum)
# chain: MGGSTVAPTTPLATGGALRKVRQAVFPIYGNQEVTKFLLIGSIKFFIILALTLTRDTKDTLIVTQCGAEAIAFLKIYGVLPAATAFIALYSKMSNAMGKKMLFYSTCIPFFTFFGLFDVFIYPNAERLHPSLEAVQAILPGGAASGGMAVLAKIATHWTSALFYVMAEIYSSVSVGLLFWQFANDVVNVDQAKRFYPLFAQMSGLAPVLAGQYVVRFASKAVNFEASMHRLTAAVTFAGIMICIFYQLSSSYVERTESAKPAADNEQSIKPKKKKPKMSMVESGKFLASSQYLRLIAMLVLGYGLSINFTEIMWKSLVKKQYPDPLDYQRFMGNFSSAVGLSTCIVIFFGVHVIRLLGWKVGALATPGIMAILALPFFACILLGLDSPARLEIAVIFGTIQSLLSKTSKYALFDPTTQMAYIPLDDESKVKGKAAIDVLGSRIGKSGGSLIQQGLVFVFGNIINAAPVVGVVYYSVLVAWMSAAGRLSGLFQAQTEMDKADKMEAKTNKEK
# Columns and labels:
# Assay type in all cases: cell-based
# [1] = test system: E. coli BL21(DE3)
# Experimental: (§1) Unless otherwise stated, liquid bacterial cultures were grown in 2×YT (casein peptone 16 g/L, yeast extract 10 g/L, NaCl 5 g/L) supplemented with potassium phosphate (50 mM, pH 7), referred to hereafter as “media”, and incubated at 37° C. in a 48-well flat bottomed plate (CELLSTAR, Greiner Bio-One) with shaking at 200 rpm. Solid growth media was prepared with 2% agar. Antibiotics were used, as appropriate, at the following concentrations: carbenicillin, 100 μg/mL; streptomycin, 50 μg/mL; kanamycin, 50 μg/mL; zeocin, 50 μg/mL; chloramphenicol, 33 μg/mL for plasmids, 5 μg/mL for chromosomal integrants. All selective agents were purchased commercially. Cell growth, indicated as OD600, was measured using a Perkin Elmer Envision 2103 Multilabel Reader with a 590/20 nm filter.
# (§2) Doubling times for strains grown in the dATP uptake assay were calculated by doubling time as (t2−t1)/log2(OD600,2/OD600,1), averaging across three, ˜30 min time intervals roughly corresponding to 30 min prior to dATP uptake and 60 min during dATP uptake.
# [2] = test system: E. coli C41(DE3); test: growth / toxicity of transporter expression
# Experimental: as §1, §2
# [3] = test system: E. coli BL21(DE3); test: dATP uptake assay
# Experimental: (§3) Radioactive uptake assays were conducted as described in Haferkamp, et al., “Tapping the nucleotide pool of the host: novel nucleotide carrier proteins of Protochlamydia amoebophila,” Mol. Microbiol. 60, 1534-1545 (2006) with the following modifications: C41(DE3) and BL21(DE3) strains carrying plasmid-based transporters and their appropriate empty plasmid controls, as well as BL21(DE3) chromosomal transporter integrants and their appropriate isogenic transporter-less control, were grown overnight with appropriate antibiotics (streptomycin for pCDF plasmids and chloramphenicol for pSC plasmids and integrants) in 500 μL of media. Cultures were diluted to an OD600 of 0.02 in 500 μL of fresh media, grown for 2.5 h, induced with IPTG (0-1 mM, pCDF strains only) or grown (all other strains) for 1 h, and incubated with dATP spiked with [α-^32P]-dATP (final concentration=250 μM (0.5 μCi/mL)) for ˜1 h. […]
# (§4) Following incubation with dATP, 200 μL of each culture was collected through a 96-well 0.65 μm glass fiber filter plate (MultiScreen, EMD Millipore) under vacuum and washed with cold potassium phosphate (3×200 μL, 50 mM, pH 7) and cold ddH2O (1×200 μL). […] The resulting image was quantified by densitometric analysis using Image Studio Lite (LI-COR). […]
# [4] = test system: E. coli C41(DE3); test: dATP uptake assay
# Experimental: as §3, §4
Molecule,toxicity of expression [1],toxicity of expression [2],uptake of [α-32P]-dATP [3],uptake of [α-32P]-dATP [4]
T7 RNAP: T7 RNA polymerase expressed in the E. coli (DE3) host strains,toxic,–,–,–
B1,–,toxic,–,–
B2,little increase in toxicity,lower toxicity relative to the full length PtNTT2,increased levels,reduced uptake
